Measured values published in a protein production outcome set (Wang et al. 2014).

Experiment: label from the status in PepcDB records
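Note: failed if final PepcDB status was selected cloned or expressed and not failed if soluble or beyond.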

Q: Which protein production does the source give for “MSAKKLFIQTLGCAMNVRDSEHMIAELTQKENYALTEDIKEADLILINTCSVREKPVHKLFSEVGGFEKVKKEGAKIGVCGCTASHLGNEIFKRAPYVDFVLGARNISKITQAIKTPKFMGVDIDYDESEFAFADFRNSIYKSYINISIGCDKHCTYCIVPHTRGDEISIPFNIIYKEAQKAIEKGAKEIFLLGQNVNNYGKRFRNEHKKMDFSDLLEELSTIEGLERIRFTSPHPLHMDDKFLEVFANNPKVCKSMHMPLQSGSSEILKAMKRGYTKEWYLNRALKLRELCPNVSISTDIIVAFPGESEKDFEETVDVLEKVRFEQIFSFKYSKRPLTKAATMPNQIDEEIASRRLSTLQNRHSEILDKIVKKQENKTFKVLFEELRAGNSIAGRTDNNFLVQVEGSEELLGQFKEVKITNAKRMVLYGEIVLEHHHHHH” here?
A: failed

Q: For “MSALRILARFVSTRTLRIRPILEIPARCKYTQHQGVKGIRNRKSFFEAQIQAGQQGEEDADLERTANSDLADMRFLDDRAYDEVAGGAMRITRDIASSQQVLILQPYVKWAAKRQNAPVDVRPEDQLAEATALIHSLPNWQVARALKVPLESLEKKTLFGSGKLVELKELVAELRQERHLTCLFVSKGTLSFAQKRFLEAEFRLPVMDRYSVVIQILRLHATSAEAKLQVAMAELPYIWAQAKDASVTQTRRQGYALTDLQKEILRTRERKLRAELDRVRRQRQLLRQKRKQQNYPIVAVVGYTNAGKTSLIKALTVEDALQPRNQLFATLDVTAHAGCLPCNLEVIYMDTVGFMSDLPTGLFECFVATLEDAMLADVIVHVQDLSHPCHAAQRSHVEATLRSLAFNVAGGDSTASQLPPIINVYNKCDLVSQEAQSSADPVHHISARAQTGLEPLLDDIEQQILTATGRRKLQMRVPSGGPEMAWLYKNAAVVETTADAENPERLMMHVVISQRTLDQFKRQFCR”, which protein production is on record?
A: failed

Q: For “MSALSSEGFFLEKCTHFFSDKKVVFFIATLCCLLWGSAYPAIKNGYELFHIADDDIPGKLVFAGYRFAFAGLLLALAVLSGRSIGRFQRGQLAQLTILGTFQTSLQYVFFYIGLAYTTGVKGSIMNATSTFFSVLLAHYLYQNDKLNINKIIGCILGFAGVMAVNINSNGMNIGFTLLGDGFVVIAAFILSASTIYGKRISQTMDPTVMTGYQLAIGGIILTISGYCTGGSLIIPDWRAVLMLGYLILLSSAAFSLWSQLLKYNRVGMVAPFNFLIPVSGTLLSALFLNESILEWKYFFALILVCSGIWLVNRVVKTRSGK”, which protein production is on record?
A: failed

Q: For “MSAPADRSFAIERIFNAPVERVFRLWTDPLLVAQWWGIRDCTIPLCVLDVRVGGRWRIDMLTAGGALYRNQGSYLEVVENVRLSYRDEPDPEIREWAGKPPGRSRHTVSFTASGARTHVHFEVTLATAADRERLLALGMRGGWMQSFDRLEQLIGKGADHAG”, which protein production is on record?
A: failed

Q: For “MSAQDTQSLGVWSDCLTLLRLELLRAVPKSAVGLGCGKKIHANGILDEIFFPLDISIASAYVKTKMNFNPPTLQHLAGRSLMKDEALAISALQDLPMQLFPPLFKDAFTSKQSNILKQMVAAWPFPCLPVGGLMETPPHLETLKAVLDGLDLLMKQKVRLRMWKLQVLDLRDAHHDFWKGYTGIQDLVSSLDVIGKTQPVGNHPIIGGKQVMTVLMNLSFTSRHPSKYIKYLCHWAKQRKNVIQVICQKLEFGAIPAYDSLNVLGVFDLGSIQELEINKCWDMCTLALLAPGLGQMKNLQKLLLKEICITVDWPWDQKTEGLCVKQIFFQFSKLRNLQHLYLNDVYFLNEHLDQVLRCLESPLETLAITHCMLSQSDMKYLSQCPSIHQLKHLDLSGVTFINLSHPFLRSLLERVTATLKTLKLNGCMIMDFQIRALLPVLSQCSQLTEVNFEENSLSMDSLKKLLQHTANLTHLTLEKYPAPDEVYDDTGNVIPHRFIQLCSELMDTLKILRQPNHVYFVSKKCLDCHKYFIYNLEAMLCSCWQ”, which protein production is on record?
A: failed

Q: For “MSASHFLTIIKPASLAVLLLLAAGFWVLHGFIMPIAWAVVLAFTVWPWYEHVYQRAPCWMRGGWLPLAMTLLMMVLLMVPATFGVLVLGHEVQMLHRLLIKVQSSGIGAPDWLIQLPWVGGWIKETWSETFGNPETIKNALNALGMGTVFSYTRDLAAQVLHRFMSGFVTLLALFFIFRDGHGLGRQILDRSVRLFGSAGARYARHAVTAVRGTVNGMLLVGIGKGVVLGLGYWAVGLSQPVLLGTLTAVVALVPFAAKLVFGAASIYLIVQGHAMAGIVLVVYGFIITLIADNYVRPTLIGGAANIPFLPTLLGIFGGVEAMGFVGLFIGPTVMAILISLWRDWNDETRLPSA”, which protein production is on record?
A: failed

Q: With “MSATGIKRSNLNTRPVQRDASAKQTAIKGPYGKSPGCTTSCGLRLPRKTEVTAAKLIKHLGCKFAKGLRLVVMRKKKRSPPSKVSSFSGRSQPPIIPINNDSHRSEAIEDCIQFINSSSSFTRSNSTS” as the sequence, how does the protein production read?
A: failed

Q: For “MSATRHRSDGHEEIVALDALPLSAAIRRRELSCREVMQAYLAQIERFNPRVNAIVSLQAESRLLTQADERDRQLARGEWLGWMHGMPQAIKDLAATSGIPTTLGSPLFAGQVPEHDAIVVERVKSSGAIVIGKTNVPEFGLGSQTYNPLFGTTRNAYDPARIAGGSSGGAAVALALRMLPVADGSDMMGSLRNPAAYNNVYGFRPSQGRVPHGPQAELFVQQLATEGPMGRSVADLARLLATQAGYDPRCPLSLRDDPRRFADDLGRDFRGARLGWLGDYAGYLPMEEGVLELCEAALGDFAELGCDVEACLPDYPLERLWRTWLVHRQWLVQGSLGELYADPARRVRLKPEAQWEVESGLGLGAAEVYRASLDRSDWYRALARLFERYDFLLLPSAQVFPFDAETAWPRQVAGRPMDTYHRWMEVVIGPTLAGLPAISVPIGFGAAGLPMGLQIIGPAQADLAVLQLAHAHEGLTRWVSRRPPAMLEAPGGI”, which protein production is on record?
A: failed

Q: Which protein production does the source give for “MSAVMARRIAVVGGGVAGLMAAWWASNYGYDVVVYEADLSSLTATRVSAGIIDPTIDISLAPVALETLSLLKRLGLGLESRLLWLHERGSCRRLERLLSDKGIIERSVAGEESIRLGRYTVNLGYGEELHVINTIIVDTGEFYSLASSASNVDIVEDSVEYVGCGSVGLKRGGSREFDAIIVAAGPWTGFISGLQALSNMLRVYRCEALIIRAGGGPFAVVDDILDFYLSIHASGDGVLGNGCCVEIASPLDGYRYSGDVLDAVISRSIERLEGLGEAELITPVSAPCVVGRDARPVLGMLPGCSRVYLLAGLDGVGVTLAPVLARLVVESIATGSQEPIPPEMAASRPTSSSESVVKEPVEEC” here?
A: failed

Q: With “MSCYSDSITPDSFSGIVFALEGVSRSIVLINGPSGCKYYHSAVSDNQTLRQYEFDPFNYSEKWYFGQPRVPCTYLDSDDYIYGSTDKLTEALEFLRDNAPFDLLCIVNSPGAALIGDDLRGIAGRIIKEKSVVIIETPDFSRDICTGYETAAAALLDSLPLNSAARSQPNTVNILGLSIFHKYFAGDILELRRLLELCGVTVNCFLCADCDIDTIRRIPEAALNIVIHPEYGMKTARCLKERYGTPFYLCDGPPIGFSATEKFIGGICTALGCDSSLFRRESERARARAYAYISQVNSLTGLPKGVHFAVEGTYSELYAYTSFLVRYFGMIPEALSVLNEGSDCCKERLQALLNGLALPQALDRDLTETDSELVFASGNTIAKLKLRRHMFSGIEISLPSLGYIDVIPKTHIGLQGALMLTEQVLNGLAF” as the sequence, how does the protein production read?
A: failed

Q: Which protein production does the source give for “MSDAQKFQLGTIGALSLSVVSSVSIVICNKALISTLGFTFATTLTSWHLLVTFCSLHVALWMKFFEHKPFDPRAVLGFGVLNVNFSTFLVIGKTSPVTYQVLGHLKTCLVLAFGYLLLKDAFSWRNILGILVAVIGMVLYSYYCTLETQQKATETSTQLPQMDENEKDPLVSAENGSGLISDNGVQKQDPVWNSNKDFQA” here?
A: failed

Q: With “MSDCSFIIVGGGGHARVVASTLRRLGETILGFTDPDEEATLGDGIEHLGRDKILTEKDPSKVALTMGMGSVRDTGHRAGLFTEQVENGFRFPTLIHPDAVLASEAKTKAGVQVMAGGVIQPGASLGENVIVNTNASVDHDCQIGAHSHVASGATLSGEVVLESQVHVGTGASIIQGVDVGKNSVVGAGAVVIEDVPPETVVIGVPAHPK” as the sequence, how does the protein production read?
A: failed

Q: Which protein production does the source give for “MSDDPEDRMLGWDESVFRDEHVFEIDWLPETFKHRDTQMETLKYALRPAVRGSRPLNVIARGPPGTGKTTAVQILFDELTAQTDVKTVRVNCQMDSTRYAVFSRLFAEIFDYEPPSSGISFKKLFSQITDKLVEEDEVLVVALDDVNYLFYESEASDTLYSLLRAHEAHSGAKIGVICVSSDLELDTIDALDTRVQSVFRPEEVYFNPYGQAEIADILGERADRGFNEGVVGPTVLDRVAELTEEQGGDLRVGIDLLRRAGMNAEMRASRSVETEDVEAAYDKSKYVHLSRRLRELSDSETALVEVIAAHDGQQAGDIYDAFSEQTDLGYTRYSEIINKLDQLDIIDADYTNVEGRGRSRELTLNYDADAVLERL” here?
A: failed

Q: With “MSDEGPGTGPGNGLGEKGDTSGPEGSGGSGPQRRGGDNHGRGRGRGRGRGGGRPGAPGGSGSGPRHRDGVRRPQKRPSCIGCKGTHGGTGAGAGAGGAGAGGGGRGRGGSGGRGRGGSGGRRGRGRERARGGSRERARGRGRGRGEKRPRSPSSQSSSSGSPPRRPPPGRRPFFHPVGEADYFEYHQEGGPDGEPDVPPGAIEQGPADDPGEGPSTGPRGQGDGGRRKKGGWFGKHRGQGGSNPKFENIAEGLRALLARSHVERTTDEGTWVAGVFVYGGSKTSLYNLRRGTALAIPQCRLTPLSRLPFGMAPGPGPQPGPLRESIVCYFMVFLQTHIFAEVLKDAIKDLVMTKPAPTCNIRVTVCSFDDGVDLPPWFPPMVEGAAAEGDDGDDGDEGGDGDEGEEGQELEHHHHHH” as the sequence, how does the protein production read?
A: failed

Q: Which protein production does the source give for “MSDEHRFSRLRPLSLGLLAPLAVLLTGCGGPNLIERLSIGNWGFWGTVIIVLDLVALVDLLGDGTRSTTSTVVWALLIVFAPVLGVILYFIFGRE” here?
A: failed

Q: With “MSDFLQTTHLIIILCFLQQFLCTRMDIVIWLTCTTVPLSRRGRIGLGGSVILHVSDIHCSLRRLEDIISSLPVKPSTVAATGDFECEKAAVAIVEWSRREGVPLVAVTGNLDHAGVRRVLRSAGVLMDGRVDRVGGLVFGGVGGMDPRTSMEMLLRSLESSGLTVDVLLTHHPPHGVLDTTFAGVRAGLHDLRSLVDSLKPRAHLFGHIHESPGIESIGGTVFVNPGPAYEGRYALVRILGSVVKAELYTA” as the sequence, how does the protein production read?
A: failed

Q: For “MSDFSNELHTQIQYSLIEKLSESERRYRELVDSLREIVFKCDRLGNLNFLNRAWTNTLGYGITDAIGSALSNFIDLDDQYLWSETLEKLQTGVEVCQKLRFYHQTGAIVWLELSAQPQSETEFSGSLINITDVYDELRLRKHAEGLLKQTNEELEARVEQRNIELIQANHDLKVTLDKLKYTQAQLVQTEKMSSLGQLVAGIAHEINNPVNFI”, which protein production is on record?
A: failed

Q: Which protein production does the source give for “MSDIESLGEAAGLFEEPEDFLPPPPKPHFAEYQRSHITKESKSDVKDIKLRLVGTSPLWGHLLWNAGIYTANHLDSHPELIKGKTVLELGAAAALPSVICALNGAQMVVSTDYPDPDLMQNIDYNIKSNVPEDFNNVSTEGYIWGNDYSPLLAHIEKIGNNNGKFDLIILSDLVFNHTEHHKLLQTTKDLLAEKGQALVVFSPHRPKLLEKDLEFFELAKNEFHLVPQLIEMVNWKPMFDEDEETIEVRSRVYAYYLTHEK” here?
A: failed

Q: For “MSDIISIKDIDLAKKKVFIRCDFNVPQDDFLNITDDRRIRSAIPTIRYCLDNGCSVILASHLGRPKEISSKYSLEPVAKRLARLLDKEIVMAKDVIGEDAKTKAMNLKAGEILLLENLRFEKGETKNDENLAKELASMVQVYINDAFGVCHRAHSSVEAITKFFDEKHKGAGFLLQKEIDFASNLIKHPARPFVAVVGGSKVSGKLQALTNLLPKVDKLIIGGGMAFTFLKALGYDIGNSLLEEELLEEANKILTKGKNLGVKIYLPVDVVAAPACSQDVPMKFVPAQEIPNGWMGLDIGPASVRLFKEVISDAQTIWWNGPMGVFEIDKFSKGSIKMSHYISEGHATSVVGGGDTADVVARAGDADEMTFISTGGGASLELIEGKELPGVKALRSKENE”, which protein production is on record?
A: not failed

Q: For “MSDKGTDTKDKEKKAGKKKTASDRIEVRQSGVHGKGVYAIGQIAEGERVIEYKGEHISWKEALKRHPHDPNDPNHTFYFSLDDGDVIDAKFGGNRARWINHACDPNCEAREKKGRVFIHALRDIEPGEELFYDYGLVIDARYTKKLKQEYECRCGSPKCRGTMLAPKDKK”, which protein production is on record?
A: failed
